Measured values published in article PMC12312913.

Legend:
Assay in all cases: BLI; Octet R2; His6-tagged OMP-TF bound to rabbit anti-His mAb and tethered to ProA biosensors; analyte: crude cell lysate of J-Flag at different concentrations; PBS with 0.1% BSA and 0.01% Tween-20; double reference subtraction (buffer and TF sensor); 1:1 binding model
[1] = biological target: OmpX fused to TF and His tag (S. Typhimurium)
[2] = biological target: BtuB fused to TF and His tag (S. Typhimurium) (UniProt P37409)
[3] = biological target: OmpC fused to TF and His tag (S. Typhimurium) (UniProt P0A263)
Chain of OmpC fused to TF and His tag (S. Typhimurium) (P0A263 22-378): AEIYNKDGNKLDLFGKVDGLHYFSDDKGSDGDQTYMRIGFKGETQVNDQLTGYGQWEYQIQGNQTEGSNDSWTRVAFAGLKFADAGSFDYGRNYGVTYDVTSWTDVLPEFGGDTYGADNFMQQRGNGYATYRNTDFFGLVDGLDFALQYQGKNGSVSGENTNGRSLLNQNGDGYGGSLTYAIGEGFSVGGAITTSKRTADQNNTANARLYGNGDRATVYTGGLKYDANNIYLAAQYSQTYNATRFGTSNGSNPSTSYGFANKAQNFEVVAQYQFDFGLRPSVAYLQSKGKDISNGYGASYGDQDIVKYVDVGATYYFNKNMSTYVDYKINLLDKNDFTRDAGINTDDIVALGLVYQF

Chain of BtuB fused to TF and His tag (S. Typhimurium) (P37409 21-614): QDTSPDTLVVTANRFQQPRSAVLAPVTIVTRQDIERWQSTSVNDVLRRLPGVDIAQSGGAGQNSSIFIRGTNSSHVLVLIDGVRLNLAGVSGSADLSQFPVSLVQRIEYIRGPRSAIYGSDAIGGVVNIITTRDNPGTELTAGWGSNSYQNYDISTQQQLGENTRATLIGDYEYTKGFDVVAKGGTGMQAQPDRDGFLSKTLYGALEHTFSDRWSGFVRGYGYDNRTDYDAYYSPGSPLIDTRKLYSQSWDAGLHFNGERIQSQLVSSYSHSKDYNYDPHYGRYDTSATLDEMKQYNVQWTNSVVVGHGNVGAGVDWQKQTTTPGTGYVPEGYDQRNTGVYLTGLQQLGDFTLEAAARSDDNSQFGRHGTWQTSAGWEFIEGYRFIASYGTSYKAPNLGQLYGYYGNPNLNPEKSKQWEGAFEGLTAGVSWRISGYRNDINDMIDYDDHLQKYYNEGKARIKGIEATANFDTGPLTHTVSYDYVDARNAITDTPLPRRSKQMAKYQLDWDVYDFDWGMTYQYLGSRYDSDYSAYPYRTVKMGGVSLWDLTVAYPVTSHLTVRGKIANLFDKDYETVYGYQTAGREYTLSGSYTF

“Gifsy-1 central tail tip J protein with Flag tag (natural protein)” showed a Kd [1] of 70 nM, a Kd [2] of 5.97 pM and a Kd [3] of 0.341 nM.
